Data: paper PMC5903163

Biological target: glucose-regulated protein 78 (GRP78) (Mesocricetus auratus (endogenous in BHK-21)) (UniProt P07823)
Chain of UniProt P07823 (P07823 19-654): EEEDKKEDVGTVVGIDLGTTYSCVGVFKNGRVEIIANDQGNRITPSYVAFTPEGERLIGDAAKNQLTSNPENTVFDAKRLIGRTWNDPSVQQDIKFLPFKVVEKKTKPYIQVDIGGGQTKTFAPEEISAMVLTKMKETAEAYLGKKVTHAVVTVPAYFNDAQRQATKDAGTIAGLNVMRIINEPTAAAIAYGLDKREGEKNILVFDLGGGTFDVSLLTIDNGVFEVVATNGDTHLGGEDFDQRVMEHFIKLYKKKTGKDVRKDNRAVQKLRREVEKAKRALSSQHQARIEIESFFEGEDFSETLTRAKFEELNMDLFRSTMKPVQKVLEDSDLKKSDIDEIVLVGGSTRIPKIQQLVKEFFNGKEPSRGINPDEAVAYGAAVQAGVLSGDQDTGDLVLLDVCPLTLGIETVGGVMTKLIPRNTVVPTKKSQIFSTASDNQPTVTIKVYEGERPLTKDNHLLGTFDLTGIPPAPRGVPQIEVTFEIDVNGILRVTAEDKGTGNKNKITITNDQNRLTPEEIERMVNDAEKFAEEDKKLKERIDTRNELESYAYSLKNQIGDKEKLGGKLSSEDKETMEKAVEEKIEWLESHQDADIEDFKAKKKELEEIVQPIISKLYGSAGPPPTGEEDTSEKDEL

“Tembusu virus (TMUV) JS804, whole virus particle (complex)” gave a TMUV RNA (qRT-PCR, 24 h) in BHK-21 cells pre-incubated with 100 μg/ml anti-GRP78 N-terminal antibody (ab32618) before infection, against rabbit IgG treated cells of 50%.
